The source of these data is article doi:10.1101/2023.08.04.551977 (bioRxiv, 2023).

Data set [1] concerns the target Wild-type menin (human) (UniProt O00255). The experiment in a line: MST.
In data set [2] the target is His-sumo-AR MBR (aa. G473-T560). The experiment in a line: BLI. (Biolayer interferometry detects binding as a change in optical thickness at a sensor tip.)
The next data set has as its target menin-MLL complex (UniProt O00255). As to the kind of experiment: MST.
For data set [3], the target named is menin Δ460-519/ 586-615 (human) (UniProt O00255). The experiment in a line: MST.
For a further data set, the target named is menin Δ460-519 (human) (UniProt O00255). The experiment in a line: MST.
For data set [4], the target named is Wild-type menin (human) (UniProt O00255). As to the kind of experiment: MST. This is another data set of the same source.
The data set “MST” concerns the molecule itself. As to the kind of experiment: MST.
The data set “HPLC-SAXS” concerns the molecule itself. As to the kind of experiment: HPLC-SAXS.
The next data set concerns the target AR MBR (aa. G473-T560). The experiment in a line: NMR titration.
The next data set addresses T1, AR-v7 (UniProt P10275-3 1-644).
T1 sequence: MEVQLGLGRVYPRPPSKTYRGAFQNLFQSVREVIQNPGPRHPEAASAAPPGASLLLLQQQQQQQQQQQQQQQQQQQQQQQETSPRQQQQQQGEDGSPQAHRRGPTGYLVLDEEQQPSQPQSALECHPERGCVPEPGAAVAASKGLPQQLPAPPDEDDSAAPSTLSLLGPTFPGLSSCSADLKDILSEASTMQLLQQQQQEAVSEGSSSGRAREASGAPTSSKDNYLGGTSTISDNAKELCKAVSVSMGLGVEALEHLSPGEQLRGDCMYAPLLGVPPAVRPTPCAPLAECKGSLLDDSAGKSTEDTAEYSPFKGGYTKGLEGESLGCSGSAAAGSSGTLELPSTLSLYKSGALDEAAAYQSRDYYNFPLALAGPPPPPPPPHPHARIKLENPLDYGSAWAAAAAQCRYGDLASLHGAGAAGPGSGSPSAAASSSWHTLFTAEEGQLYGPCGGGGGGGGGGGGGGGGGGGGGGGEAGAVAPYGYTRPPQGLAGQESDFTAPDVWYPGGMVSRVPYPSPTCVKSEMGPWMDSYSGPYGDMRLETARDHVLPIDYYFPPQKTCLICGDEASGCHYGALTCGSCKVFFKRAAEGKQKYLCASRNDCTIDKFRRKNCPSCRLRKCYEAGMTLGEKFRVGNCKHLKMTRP
As to the kind of experiment: MST.

Data set [5] has as its target Wild-type menin (human) (UniProt O00255). The experiment in a line: SEC. On the technique in general: Size exclusion chromatography separates by hydrodynamic size, large species first.
Data set [6] shares this target. As to the kind of experiment: dynamic light scattering.
A further data set addresses His-sumo-AR MBR A (UniProt P10275). As to the kind of experiment: BLI.
The next data set concerns the target His-sumo-AR MBR B (UniProt P10275). The experiment in a line: BLI.
Data set [7] deals with His-sumo-AR MBR (aa. G473-T560). The experiment in a line: BLI. The source holds these as a separate data set.
The data set “dynamic light scattering” deals with the molecule itself. As to the kind of experiment: dynamic light scattering.

In general, Kd refers to a measure of binding affinity in units of concentration. Low values mean higher affinity, high ones lower affinity. One may read the stoichiometry N as the number of molecules, sites or subunits per partner or assembly.

Read-outs that look alike come from different tables or passages of the source.

Turning to “His-sumo-AR MBR B (from UniProt P10275 509-559) (domain or fragment)”, in the data set with Wild-type menin (human) [1], the Kd was 24 µM.
On to “menin-MLL complex (from UniProt O00255;Q03164)”, for which the Kd in [2] came out at 10.5 µM.
In the case of “His-sumo-AR MBR (aa. G473-T560) (domain or fragment)”, the Kd with menin-MLL complex was 10.8 µM; in data set [3] it was 2 µM; with menin Δ460-519 (human), 6.3 µM; with Wild-type menin (human) [1], 1.7 µM; in the data set with Wild-type menin (human) [4], 9.8 µM.
“His-sumo-AR MBR A (from UniProt P10275 473-518) (domain or fragment)” had a Kd with Wild-type menin (human) [1] of 1000 µM.

B1: menin Δ460-519/ 586-615 (natural protein)
chain: MGLKAAQKTLFPLRSIDDVVRLFAAELGREEPDLVLLSLVLGFVEHFLAVNRVIPTNVPELTFQPSPAPDPPGGLTYFPVADLSIIAALYARFTAQIRGAVDLSLYPREGGVSSRELVKKVSDVIWNSLSRSYFKDRAHIQSLFSFITGTKLDSSGVAFAVVGACQALGLRDVHLALSEDHAWVVFGPNGEQTAEVTWHGKGNEDRRGQTVNAGVAERSWLYLKGSYMRCDRKMEVAFMVCAINPSIDLHTDSLELLQLQQKLLWLLYDLGHLERYPMALGNLADLEELEPTPGRPDPLTLYHKGIASAKTYYRDEHIYPYMYLAGYHCRNRNVREALQAWADTATVIQDYNYCREDEEIYKEFFEVANDVIPNLLKEAASLLEAGEERPGEQSQGTQSQGSALQDPECFAHLLRFYDGICKWEEGSPTPVLHVGWATFLVQSLGRFEGQVRQKVRIVSGTVAGTARGPEGGSTAQVPAPTASPPPEGPVLTFQSEKMKGMKELLVATKINSSAIKLQLTAQSQV
modifications: RED-NHS 2nd generation dye label on the labelled partner in the MST experiments
Molecule B1 displayed a Kd in “MST” of 3.2 ± 0.8 µM.

B2: menin Δ460-519 (natural protein)
chain: MGLKAAQKTLFPLRSIDDVVRLFAAELGREEPDLVLLSLVLGFVEHFLAVNRVIPTNVPELTFQPSPAPDPPGGLTYFPVADLSIIAALYARFTAQIRGAVDLSLYPREGGVSSRELVKKVSDVIWNSLSRSYFKDRAHIQSLFSFITGTKLDSSGVAFAVVGACQALGLRDVHLALSEDHAWVVFGPNGEQTAEVTWHGKGNEDRRGQTVNAGVAERSWLYLKGSYMRCDRKMEVAFMVCAINPSIDLHTDSLELLQLQQKLLWLLYDLGHLERYPMALGNLADLEELEPTPGRPDPLTLYHKGIASAKTYYRDEHIYPYMYLAGYHCRNRNVREALQAWADTATVIQDYNYCREDEEIYKEFFEVANDVIPNLLKEAASLLEAGEERPGEQSQGTQSQGSALQDPECFAHLLRFYDGICKWEEGSPTPVLHVGWATFLVQSLGRFEGQVRQKVRIVSGTVAGTARGPEGGSTAQVPAPTASPPPEGPVLTFQSEKMKGMKELLVATKINSSAIKLQLTAQSQVQMKKQKVSTPSDYTLSFLKRQRKGL
modifications: RED-NHS 2nd generation dye label on the labelled partner in the MST experiments
Turning to B2, in “HPLC-SAXS”, the “stoichiometry N” value came to 2. The Kd in the data set with AR MBR (aa. G473-T560) came out at 15.7 µM; with AR-v7 it was 1.7 ± 1.8 µM; in the data set “MST”, 1.9 ± 0.9 µM.

B3: Wild-type menin (natural protein)
chain: MGLKAAQKTLFPLRSIDDVVRLFAAELGREEPDLVLLSLVLGFVEHFLAVNRVIPTNVPELTFQPSPAPDPPGGLTYFPVADLSIIAALYARFTAQIRGAVDLSLYPREGGVSSRELVKKVSDVIWNSLSRSYFKDRAHIQSLFSFITGTKLDSSGVAFAVVGACQALGLRDVHLALSEDHAWVVFGPNGEQTAEVTWHGKGNEDRRGQTVNAGVAERSWLYLKGSYMRCDRKMEVAFMVCAINPSIDLHTDSLELLQLQQKLLWLLYDLGHLERYPMALGNLADLEELEPTPGRPDPLTLYHKGIASAKTYYRDEHIYPYMYLAGYHCRNRNVREALQAWADTATVIQDYNYCREDEEIYKEFFEVANDVIPNLLKEAASLLEAGEERPGEQSQGTQSQGSALQDPECFAHLLRFYDGICKWEEGSPTPVLHVGWATFLVQSLGRFEGQVRQKVRIVSREAEAAEAEEPWGEEAREGRRRGPRRESKPEEPPPPKKPALDKGLGTGQGAVSGPPRKPPGTVAGTARGPEGGSTAQVPAPTASPPPEGPVLTFQSEKMKGMKELLVATKINSSAIKLQLTAQSQVQMKKQKVSTPSDYTLSFLKRQRKGL
modifications: RED-NHS 2nd generation dye label on the labelled partner in the MST experiments
Regarding B3, the Kd is 10.4 µM with Wild-type menin (human) [1], 3000 µM with His-sumo-AR MBR A, 47 µM with His-sumo-AR MBR B and 10.5 µM in data set [7]. The stoichiometry N with Wild-type menin (human) [5] and in the data set with Wild-type menin (human) [6] was 2 throughout.

B4: AR MBR-DBD-LBD (domain or fragment)
chain: GEAGAVAPYGYTRPPQGLAGQESDFTAPDVWYPGGMVSRVPYPSPTCVKSEMGPWMDSYSGPYGDMRLETARDHVLPIDYYFPPQKTCLICGDEASGCHYGALTCGSCKVFFKRAAEGKQKYLCASRNDCTIDKFRRKNCPSCRLRKCYEAGMTLGARKLKKLGNLKLQEEGEASSTTSPTEETTQKLTVSHIEGYECQPIFLNVLEAIEPGVVCAGHDNNQPDSFAALLSSLNELGERQLVHVVKWAKALPGFRNLHVDDQMAVIQYSWMGLMVFAMGWRSFTNVNSRMLYFAPDLVFNEYRMHKSRMYSQCVRMRHLSQEFGWLQITPQEFLCMKALLLFSIIPVDGLKNQKFFDELRMNYIKELDRIIACKRKNPTSCSRRFYQLTKLLDSVQPIARELHQFTFDLLIKSHMVSVDFPEMMAEIISVQVPKILSGKVKPIYFHTQ
As to B4, in the data set “dynamic light scattering”, the “stoichiometry N” value came to 2.
